In US9616120B2, “Monoclonal antibodies directed to CD20” (VET THERAPEUTICS, INC., priority 2010, dated 2017):

T1: recombinant canine CD20 expressed in HEK cells (Canis lupus familiaris, UniProt Q3C2E2, A201T/C77Y/G273E/L198V)
T1 construct: expressed in transfected cells; host or cells: HEK cells
T1 sequence (Q3C2E2 1-297 C77Y/L198V/A201T/G273E): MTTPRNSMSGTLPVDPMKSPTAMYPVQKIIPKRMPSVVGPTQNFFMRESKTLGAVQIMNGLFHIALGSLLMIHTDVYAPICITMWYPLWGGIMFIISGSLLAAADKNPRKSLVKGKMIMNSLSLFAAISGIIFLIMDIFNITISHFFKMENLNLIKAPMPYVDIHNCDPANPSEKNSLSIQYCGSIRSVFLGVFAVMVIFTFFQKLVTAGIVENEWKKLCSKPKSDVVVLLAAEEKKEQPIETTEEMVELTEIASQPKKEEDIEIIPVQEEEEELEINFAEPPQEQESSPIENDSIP

T2: recombinant canine CD20 (Canis lupus familiaris, UniProt Q3C2E2, A201T/C77Y/G273E/L198V)
T2 construct: are transfected with an expression vector encoding the full-length canine CD20 protein; expressed in transfected cells; host or cells: CHO cells (CHO-DG44)
T2 sequence (Q3C2E2 1-297 C77Y/L198V/A201T/G273E): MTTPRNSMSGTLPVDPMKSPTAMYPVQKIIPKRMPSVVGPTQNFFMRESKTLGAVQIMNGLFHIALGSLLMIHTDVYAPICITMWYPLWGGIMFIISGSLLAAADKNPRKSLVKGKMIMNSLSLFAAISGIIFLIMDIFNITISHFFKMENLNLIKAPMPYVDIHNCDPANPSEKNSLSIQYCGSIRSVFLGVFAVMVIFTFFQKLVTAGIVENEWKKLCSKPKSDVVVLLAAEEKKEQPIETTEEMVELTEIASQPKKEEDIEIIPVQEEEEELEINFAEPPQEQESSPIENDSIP


How the values were obtained:
[1] = target: T1, recombinant canine CD20 expressed in HEK cells; test: FACS binding to cells expressing recombinant canine CD20
Experimental: (§1) The binding of the antibody variants of the present invention raised to canine CD20 can be assessed by FACS analysis for their binding to feline CD20 according to standard immunological techniques (see Veterinary Immunology and Immunopathology 2005, 106:179-196; Brousseau et al., Manual of Immunology Methods, CRC Press, 1998). In the present example, the antibody variants (2.5 μg/mL) are incubated with mammalian cells expressing the recombinant feline CD20 or canine CD20 or control cells. The amount of bound antibody is assessed by detection with a fluorescent-labeled reporter antibody reagent. Several controls are utilized to determine the background fluorescence: (i) CD20 expressing cells are incubated with the conjugated secondary antibody with an isotype antibody, and (ii) Control cells are incubated with the anti-CD20 antibodies.

[2] = test system: feline CD20 expressed in mammalian cells; test: FACS binding to cells expressing recombinant feline CD20; conditions: antibody 2.5 μg/mL
Experimental: as §1

[3] = test system: Control Cells; test: FACS binding to control cells; conditions: antibody 2.5 μg/mL
Experimental: In the present example, the antibody variants (2.5 μg/mL) are incubated with mammalian cells expressing the recombinant feline CD20 or canine CD20 or control cells. The amount of bound antibody is assessed by detection with a fluorescent-labeled reporter antibody reagent. Several controls are utilized to determine the background fluorescence: (i) CD20 expressing cells are incubated with the conjugated secondary antibody with an isotype antibody, and (ii) Control cells are incubated with the anti-CD20 antibodies.

[4] = target: T2, recombinant canine CD20; test: Competition experiments (epitope mapping) on CHO cells expressing recombinant canine CD20; assay type: binding
Experimental: Competition experiments are performed using standard techniques. Briefly, biotinylated recombinant anti-canine CD20 antibodies are titrated on CHO cells expressing recombinant canine CD20. Cells are first incubated with an excess of unlabelled recombinant anti-canine CD20 antibody (25 μg/mL). Thereafter, cells are incubated with a biotin-labeled antibody at 2 μg/mL. After washing, cells are incubated with streptavidin- phycoerythrin and fluorescence is analyzed by flow cytometry. An irrelevant antibody is used as negative control for inhibition. Results are expressed as a ratio between fluorescence intensity of the cells pre-incubated with the unlabelled antibody and the fluorescence intensity obtained for each biotinylated antibody alone. The percentage of inhibition (PI) is calculated by the following formula: PI=[1−(Experimental-Background)/Biotinylated antibody alone−Background)]×100%.

[5] = test system: lymphoma cells; test: MTT proliferation assay on lymphoma cells; assay type: cell-based; conditions: 72 h; for percentage of reduction of cell proliferation, Doxorubicin 6.6 nM: Mab 10 ug/mL plus Doxorubicin 6.6 nM; for percentage of reduction of cell proliferation, Doxorubicin 66 nM: Mab 10 ug/mL plus Doxorubicin 66 nM; for percentage of reduction of cell proliferation, Doxorubicin 0 nM: Mab 10 ug/mL, triplicate
Experimental: Lymphoma cells are grown in RPMI medium with FBS 10% in 5% carbon dioxide (CO2) at 37° C. Cells are seeded at 5,000 cells/well in 96-well plates in medium with 5% FBS. Cells are treated with the antibody variants or isotype controls (10 μg/ml) and incubated for 72 h at 37° C. in a CO2 incubator. Ten (10) μL, MTT solution is added to each well and incubated at 37° C. for 4 h according to the manufacturer's instruction (Trevigen). Optical density (OD) is then measured at 490 nm and data is presented as percentage of reduction of cell proliferation of triplicate measurements. The data in Table 5 illustrate that the antibody variants have an anti-proliferative effect on lymphoma cells. Furthermore, the antibody variants sensitize the lymphoma cell line to Doxorubicin, a cytotoxic drug commonly used in the treatment of cancer for companion animals.
The antibody variants of the present invention are further tested for their ability to alter proliferation of lymphoma cells. Cell assays are conducted as described in the example above. Data is presented in Table 6 as percentage of reduction of cell proliferation of triplicate measurements.

feline CD20 expressed in mammalian cells, sequence (as listed by the source): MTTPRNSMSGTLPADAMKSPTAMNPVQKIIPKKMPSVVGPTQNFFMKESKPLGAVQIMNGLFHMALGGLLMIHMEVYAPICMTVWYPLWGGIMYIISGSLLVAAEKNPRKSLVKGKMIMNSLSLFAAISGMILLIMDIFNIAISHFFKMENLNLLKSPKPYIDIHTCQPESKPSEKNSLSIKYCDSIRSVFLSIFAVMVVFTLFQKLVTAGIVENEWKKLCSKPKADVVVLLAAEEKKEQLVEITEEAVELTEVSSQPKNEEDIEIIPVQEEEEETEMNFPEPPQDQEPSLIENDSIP

binding to recombinant canine CD20 (in words) [1] | mean fluorescence, Canine CD20 ([1]; antibody 2.5 μg/mL) [mean fluorescence units] | epitope of canine CD20 (in words) ([4]; conclusion from Table 7) | percentage of inhibition (PI), labeled antibody CD20-1 ([4]; unlabelled competitor 25 μg/mL, biotin-labeled CD20-1 2 μg/mL) [%] | percentage of inhibition (PI), labeled antibody CD20-2 ([4]; unlabelled competitor 25 μg/mL, biotin-labeled CD20-2 2 μg/mL) [%] | percentage of inhibition (PI), labeled antibody CD20-5 ([4]; unlabelled competitor 25 μg/mL, biotin-labeled CD20-5 2 μg/mL) [%] | Molecule | mean fluorescence, Feline CD20 [2] [mean fluorescence units] | mean fluorescence, Control Cells [3] [mean fluorescence units] | percentage of reduction of cell proliferation, Doxorubicin 6.6 nM [5] [%] | percentage of reduction of cell proliferation, Doxorubicin 66 nM [5] [%] | percentage of reduction of cell proliferation, Doxorubicin 0 nM [5] [%]
effective binding | 2107 | recognize different epitopes | 6.03 | 1.41 | 5.99 | CD20-6: anti-canine CD20 antibody; full length HC SEQ ID NO. 42, LC SEQ ID NO. 43 (antibody, canis familiaris/mus musculus, anti-canine CD20 antibody; 43) heavy: EIQLQQSGAELVRPGASVTLSCKASGYTFTDYEMHWVKQTPVHGLEWIGGIDPETGGTAYNQKFKGKAILTADKSSSTVYMELRSLTSEDSAVYYCTRDYGTSGYWGQGTLVTVSSASTTAPSVFPLAPSCGSQSGSTVALACLVSGYFPEPVTVSWNSGSLTSGVHTFPSVLQSSGLYSLSSMVTVPSSRWPSETFTCNVAHPASKTKVDKPVPKRENGRVPRPPDCPKCPAPEMLGGPSVFIFPPKPKDTLLIARTPEVTCVVVDLDPEDPEVQISWFVDGKQMQTAKTQPREEQFNGTYRVVSVLPIGHQDWLKGKQFTCKVNNKALPSPIERTISKARGQAHQPSVYVLPPSREELSKNTVSLTCLIKDFFPPDIDVEWQSNGQQEPESKYRTTPPQLDEDGSYFLYSKLSVDKSRWQRGDTFICAVMHEALHNHYTQKSLSHSPGK light: DVVVTQTPLSLPVSFGDQVSISCRSSQSLANSYGNTYLSWYLHKPGQSPQLLIYGISNRFSGVPDRFSGSGSGTDFTLKISRVEAEDLGVYFCSQSTHVPWTFGGGTHLTVLGQPKASPSVTLFPPSSEELGANKATLVCLISDFYPSGVTVAWKADGSPITQGVETTKPSKQSNNKYAASSYLSLTPDKWKSHSSFSCLVTHEGSTVEKKVAPAECS | 60 | 4 |  |  | 
 |  |  |  |  |  | VET 133 X VET 257: antibody variant: light chain VET133 (VET132 CD20-1 LC + VET101) with heavy chain VET257 (VET256 CD20-1 HC + VET201) (antibody) heavy: EIQLQQSGAELVKPGASVKISCKASGYTFTDYYINWVKQRPGQGLEWIGKIGPGSGRTYYNEKFKGKATLTADKSSSTAYIQISSLTSEDSAVYFCAVLSWGQGTTLTVSSASTTAPSVFPLAPSCGSQSGSTVALACLVSGYFPEPVTVSWNSGSLTSGVHTFPSVLQSSGLYSLSSMVTVPSSRWPSETFTCNVAHPASKTKVDKPVPKRENGRVPRPPDCPKCPAPEMLGGPSVFIFPPKPKDTLLIARTPEVTCVVVDLDPEDPEVQISWFVDGKQMQTAKTQPREEQFNGTYRVVSVLPIGHQDWLKGKQFTCKVNNKALPSPIERTISKARGQAHQPSVYVLPPSREELSKNTVSLTCLIKDFFPPDIDVEWQSNGQQEPESKYRTTPPQLDEDGSYFLYSKLSVDKSRWQRGDTFICAVMHEALHNHYTQKSLSHSPGK light: DVQITQTPLTLSVTFGQPASISCKSSQSLLKSDGRTYLNWLLQRPGQSPKRLLYLVSKLDSGVPDRFTGSGSGTDFTLKISRVEAEDLGVYYCWQGTHFPQTFGGGTKLEIKGQPKASPSVTLFPPSSEELGANKATLVCLISDFYPSGVTVAWKADGSPITQGVETTKPSKQSNNKYAASSYLSLTPDKWKSHSSFSCLVTHEGSTVEKKVAPAECS |  |  | 65.77 | 76.79 | 59.82
 |  |  |  |  |  | VET 135 X VET 260: antibody variant: light chain VET135 (CD20-2 LC + VET101) with heavy chain VET260 (VET259 CD20-2 HC FR4T + VET201) (antibody) heavy: QVQLQQSRAELVRPGASVTLSCKPSGYTFTDYEVHWVKQTPVHGLEWIGAIDPETGGTADNQKFKGKAILTADKSSSTAYMELRSLTSEDSAVYYCTNFVDVWGTGTTVTVSSASTTAPSVFPLAPSCGSQSGSTVALACLVSGYFPEPVTVSWNSGSLTSGVHTFPSVLQSSGLYSLSSMVTVPSSRWPSETFTCNVAHPASKTKVDKPVPKRENGRVPRPPDCPKCPAPEMLGGPSVFIFPPKPKDTLLIARTPEVTCVVVDLDPEDPEVQISWFVDGKQMQTAKTQPREEQFNGTYRVVSVLPIGHQDWLKGKQFTCKVNNKALPSPIERTISKARGQAHQPSVYVLPPSREELSKNTVSLTCLIKDFFPPDIDVEWQSNGQQEPESKYRTTPPQLDEDGSYFLYSKLSVDKSRWQRGDTFICAVMHEALHNHYTQKSLSHSPGK light: DVVMSQSPSSLAVSVGEKVTMSCKSSQSLLYSGNQKNYLAWYQQKPGQSPRLLIYWASTRESGVPDRFTGSGSGTDFTLTISSVKAEDLAVFYCQQYYNYPLTFGAGTKLELKGQPKASPSVTLFPPSSEELGANKATLVCLISDFYPSGVTVAWKADGSPITQGVETTKPSKQSNNKYAASSYLSLTPDKWKSHSSFSCLVTHEGSTVEKKVAPAECS |  |  | 58.63 | 64.88 | 40.48
